According to US20140087995A1 (published 2014):
Numbered stars: 1 amine (or outer) side, 2 acyl side, 3 side chain; on linkers, the order of the positions; unused ones are H or OH. Bridge positions count the residues as written; N and C are the ends. Side chains are listed from the residue outwards. Ends that are not written are not given here. * marks the point of attachment. C20 diacid = O=C(O)CCCCCCCCCCCCCCCCCCC(=O)*; γGlu = O=C(O)[C@H](CCC(=O)[*:2])N[*:1]; AEEA = NCCOCCOCC(=O)O

T1: human amylin 3(a) receptor (human calcitonin receptor + RAMP-3) (human, UniProt P30988 25-474; O60896 24-148, limits assumed)
T1 sequence (looked up) 1: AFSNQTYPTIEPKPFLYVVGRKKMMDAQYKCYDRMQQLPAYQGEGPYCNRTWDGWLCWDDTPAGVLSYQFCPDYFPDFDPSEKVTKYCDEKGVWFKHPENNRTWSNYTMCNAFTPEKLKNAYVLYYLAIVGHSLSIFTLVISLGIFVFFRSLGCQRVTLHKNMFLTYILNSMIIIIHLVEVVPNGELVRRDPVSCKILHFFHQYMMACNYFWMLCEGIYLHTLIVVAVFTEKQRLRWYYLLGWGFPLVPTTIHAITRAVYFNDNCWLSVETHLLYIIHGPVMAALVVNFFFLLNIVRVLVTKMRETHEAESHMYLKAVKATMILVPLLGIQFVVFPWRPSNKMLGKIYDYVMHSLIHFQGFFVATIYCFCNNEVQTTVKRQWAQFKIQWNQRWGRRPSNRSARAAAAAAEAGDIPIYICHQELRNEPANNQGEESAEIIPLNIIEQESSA
T1 sequence (looked up) 2: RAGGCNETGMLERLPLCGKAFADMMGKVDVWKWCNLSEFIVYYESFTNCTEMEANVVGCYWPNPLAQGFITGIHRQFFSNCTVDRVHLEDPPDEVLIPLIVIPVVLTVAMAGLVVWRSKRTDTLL

T2: human calcitonin receptor (human, UniProt P30988 25-474)
T2 sequence (looked up): T1 sequence (looked up) 1

B1: N^ε1-[(4S)-4-carboxy-4-[[(4S)-4-carboxy-4-(19-carboxynonadecanoylamino)butanoyl]amino]butanoyl]-[Glu14,Arg17,Pro21,Pro27,Pro37]-h-amylin (peptide)
peptide: K([γGlu-γGlu-C20 diacid])CNTATCATQRLAEFLRHSSPNFGAIPSSTNVGSNTP-NH2
modifications: disulfide 2-7; N-terminus assumed
SMILES: CC[C@H](C)[C@H](NC(=O)[C@H](C)NC(=O)CNC(=O)[C@H](Cc1ccccc1)NC(=O)[C@H](CC(N)=O)NC(=O)[C@@H]1CCCN1C(=O)[C@H](CO)NC(=O)[C@H](CO)NC(=O)[C@H](Cc1c[nH]cn1)NC(=O)[C@H](CCCNC(=N)N)NC(=O)[C@H](CC(C)C)NC(=O)[C@H](Cc1ccccc1)NC(=O)[C@H](CCC(=O)O)NC(=O)[C@H](C)NC(=O)[C@H](CC(C)C)NC(=O)[C@H](CCCNC(=N)N)NC(=O)[C@H](CCC(N)=O)NC(=O)[C@@H](NC(=O)[C@H](C)NC(=O)[C@@H]1CSSC[C@H](NC(=O)[C@@H](N)CCCCNC(=O)CC[C@H](NC(=O)CC[C@H](NC(=O)CCCCCCCCCCCCCCCCCCC(=O)O)C(=O)O)C(=O)O)C(=O)N[C@@H](CC(N)=O)C(=O)N[C@@H]([C@@H](C)O)C(=O)N[C@@H](C)C(=O)N[C@@H]([C@@H](C)O)C(=O)N1)[C@@H](C)O)C(=O)N1CCC[C@H]1C(=O)N[C@@H](CO)C(=O)N[C@@H](CO)C(=O)N[C@H](C(=O)N[C@@H](CC(N)=O)C(=O)N[C@H](C(=O)NCC(=O)N[C@@H](CO)C(=O)N[C@@H](CC(N)=O)C(=O)N[C@H](C(=O)N1CCC[C@H]1C(N)=O)[C@@H](C)O)C(C)C)[C@@H](C)O
notes: also called compound 13
B2: N^-1-[(4S)-4-carboxy-4-(19-carboxynonadecanoylamino)butanoyl]-Gly[Arg1,Ala14,Arg17,Pro21,Pro27,Pro34]-h-amylin (peptide)
peptide: {C20 diacid-γGlu}-GRCNTATCATQRLAAFLRHSSPNFGAIPSSTNVGPNTY-NH2
modifications: disulfide 3-8
B3: N^α1-[(4S)-4-carboxy-4-[[(4S)-4-carboxy-4-(19-carboxynonadecanoylamino)butanoyl]amino]butanoyl]-[Glu14,Arg17,Pro21,Pro27,Pro37]-h-amylin (peptide)
peptide: {C20 diacid-γGlu-γGlu}-KCNTATCATQRLAEFLRHSSPNFGAIPSSTNVGSNTP-NH2
modifications: disulfide 2-7
SMILES: CC[C@H](C)[C@H](NC(=O)[C@H](C)NC(=O)CNC(=O)[C@H](Cc1ccccc1)NC(=O)[C@H](CC(N)=O)NC(=O)[C@@H]1CCCN1C(=O)[C@H](CO)NC(=O)[C@H](CO)NC(=O)[C@H](Cc1c[nH]cn1)NC(=O)[C@H](CCCNC(=N)N)NC(=O)[C@H](CC(C)C)NC(=O)[C@H](Cc1ccccc1)NC(=O)[C@H](CCC(=O)O)NC(=O)[C@H](C)NC(=O)[C@H](CC(C)C)NC(=O)[C@H](CCCNC(=N)N)NC(=O)[C@H](CCC(N)=O)NC(=O)[C@@H](NC(=O)[C@H](C)NC(=O)[C@@H]1CSSC[C@H](NC(=O)[C@H](CCCCN)NC(=O)CC[C@H](NC(=O)CC[C@H](NC(=O)CCCCCCCCCCCCCCCCCCC(=O)O)C(=O)O)C(=O)O)C(=O)N[C@@H](CC(N)=O)C(=O)N[C@@H]([C@@H](C)O)C(=O)N[C@@H](C)C(=O)N[C@@H]([C@@H](C)O)C(=O)N1)[C@@H](C)O)C(=O)N1CCC[C@H]1C(=O)N[C@@H](CO)C(=O)N[C@@H](CO)C(=O)N[C@H](C(=O)N[C@@H](CC(N)=O)C(=O)N[C@H](C(=O)NCC(=O)N[C@@H](CO)C(=O)N[C@@H](CC(N)=O)C(=O)N[C@H](C(=O)N1CCC[C@H]1C(N)=O)[C@@H](C)O)C(C)C)[C@@H](C)O
notes: also called compound 14
B4: N^α1-[2-[2-[2-[[2-[2-[2-[[(4S)-4-carboxy-4-(19-carboxynonadecanoylamino)butanoyl]amino]ethoxy]ethoxy]acetyl]amino]ethoxy]ethoxy]acetyl]-[Glu14,Arg17,Pro21,Pro27 … (peptide)
peptide: {C20 diacid-γGlu-AEEA-AEEA}-KCNTATCATQRLAEFLRHSSPNFGAIPSSTNVGSNTP-NH2
modifications: disulfide 2-7
SMILES: CC[C@H](C)[C@H](NC(=O)[C@H](C)NC(=O)CNC(=O)[C@H](Cc1ccccc1)NC(=O)[C@H](CC(N)=O)NC(=O)[C@@H]1CCCN1C(=O)[C@H](CO)NC(=O)[C@H](CO)NC(=O)[C@H](Cc1c[nH]cn1)NC(=O)[C@H](CCCNC(=N)N)NC(=O)[C@H](CC(C)C)NC(=O)[C@H](Cc1ccccc1)NC(=O)[C@H](CCC(=O)O)NC(=O)[C@H](C)NC(=O)[C@H](CC(C)C)NC(=O)[C@H](CCCNC(=N)N)NC(=O)[C@H](CCC(N)=O)NC(=O)[C@@H](NC(=O)[C@H](C)NC(=O)[C@@H]1CSSC[C@H](NC(=O)[C@H](CCCCN)NC(=O)COCCOCCNC(=O)COCCOCCNC(=O)CC[C@H](NC(=O)CCCCCCCCCCCCCCCCCCC(=O)O)C(=O)O)C(=O)N[C@@H](CC(N)=O)C(=O)N[C@@H]([C@@H](C)O)C(=O)N[C@@H](C)C(=O)N[C@@H]([C@@H](C)O)C(=O)N1)[C@@H](C)O)C(=O)N1CCC[C@H]1C(=O)N[C@@H](CO)C(=O)N[C@@H](CO)C(=O)N[C@H](C(=O)N[C@@H](CC(N)=O)C(=O)N[C@H](C(=O)NCC(=O)N[C@@H](CO)C(=O)N[C@@H](CC(N)=O)C(=O)N[C@H](C(=O)N1CCC[C@H]1C(N)=O)[C@@H](C)O)C(C)C)[C@@H](C)O
notes: also called compound 20
B5: N^ε1-[(4S)--4-carboxy-4-(19-carboxynonadecanoylamino)butanoyl]-[Glu14,Arg17,Pro21,Pro27,Pro37]-h-amylin (peptide)
peptide: K([γGlu-C20 diacid])CNTATCATQRLAEFLRHSSPNFGAIPSSTNVGSNTP-NH2
modifications: disulfide 2-7; N-terminus assumed
SMILES: CC[C@H](C)[C@H](NC(=O)[C@H](C)NC(=O)CNC(=O)[C@H](Cc1ccccc1)NC(=O)[C@H](CC(N)=O)NC(=O)[C@@H]1CCCN1C(=O)[C@H](CO)NC(=O)[C@H](CO)NC(=O)[C@H](Cc1c[nH]cn1)NC(=O)[C@H](CCCNC(=N)N)NC(=O)[C@H](CC(C)C)NC(=O)[C@H](Cc1ccccc1)NC(=O)[C@H](CCC(=O)O)NC(=O)[C@H](C)NC(=O)[C@H](CC(C)C)NC(=O)[C@H](CCCNC(=N)N)NC(=O)[C@H](CCC(N)=O)NC(=O)[C@@H](NC(=O)[C@H](C)NC(=O)[C@@H]1CSSC[C@H](NC(=O)[C@@H](N)CCCCNC(=O)CC[C@H](NC(=O)CCCCCCCCCCCCCCCCCCC(=O)O)C(=O)O)C(=O)N[C@@H](CC(N)=O)C(=O)N[C@@H]([C@@H](C)O)C(=O)N[C@@H](C)C(=O)N[C@@H]([C@@H](C)O)C(=O)N1)[C@@H](C)O)C(=O)N1CCC[C@H]1C(=O)N[C@@H](CO)C(=O)N[C@@H](CO)C(=O)N[C@H](C(=O)N[C@@H](CC(N)=O)C(=O)N[C@H](C(=O)NCC(=O)N[C@@H](CO)C(=O)N[C@@H](CC(N)=O)C(=O)N[C@H](C(=O)N1CCC[C@H]1C(N)=O)[C@@H](C)O)C(C)C)[C@@H](C)O
notes: also called compound 12
B6: N^ε1-[(4S)-4-carboxy-4-(19-carboxynonadecanoylamino)butanoyl]-[His14,Arg17,Pro21,Pro27,Pro34,Pro37]-h-amylin (peptide)
peptide: K([γGlu-C20 diacid])CNTATCATQRLAHFLRHSSPNFGAIPSSTNVGPNTP-NH2
modifications: disulfide 2-7; N-terminus assumed
SMILES: CC[C@H](C)[C@H](NC(=O)[C@H](C)NC(=O)CNC(=O)[C@H](Cc1ccccc1)NC(=O)[C@H](CC(N)=O)NC(=O)[C@@H]1CCCN1C(=O)[C@H](CO)NC(=O)[C@H](CO)NC(=O)[C@H](Cc1c[nH]cn1)NC(=O)[C@H](CCCNC(=N)N)NC(=O)[C@H](CC(C)C)NC(=O)[C@H](Cc1ccccc1)NC(=O)[C@H](Cc1c[nH]cn1)NC(=O)[C@H](C)NC(=O)[C@H](CC(C)C)NC(=O)[C@H](CCCNC(=N)N)NC(=O)[C@H](CCC(N)=O)NC(=O)[C@@H](NC(=O)[C@H](C)NC(=O)[C@@H]1CSSC[C@H](NC(=O)[C@@H](N)CCCCNC(=O)CC[C@H](NC(=O)CCCCCCCCCCCCCCCCCCC(=O)O)C(=O)O)C(=O)N[C@@H](CC(N)=O)C(=O)N[C@@H]([C@@H](C)O)C(=O)N[C@@H](C)C(=O)N[C@@H]([C@@H](C)O)C(=O)N1)[C@@H](C)O)C(=O)N1CCC[C@H]1C(=O)N[C@@H](CO)C(=O)N[C@@H](CO)C(=O)N[C@H](C(=O)N[C@@H](CC(N)=O)C(=O)N[C@H](C(=O)NCC(=O)N1CCC[C@H]1C(=O)N[C@@H](CC(N)=O)C(=O)N[C@H](C(=O)N1CCC[C@H]1C(N)=O)[C@@H](C)O)C(C)C)[C@@H](C)O
B7: N^ε1-[(4S)-4-carboxy-4-[[(4S)-4-carboxy-4-(19-carboxynonadecanoylamino)butanoyl]amino]butanoyl]-[Glu14,Arg17,Pro21,Pro27,Pro34,Glu35,Pro37]-h-amylin (peptide)
peptide: K([γGlu-γGlu-C20 diacid])CNTATCATQRLAEFLRHSSPNFGAIPSSTNVGPETP-NH2
modifications: disulfide 2-7; N-terminus assumed
SMILES: CC[C@H](C)[C@H](NC(=O)[C@H](C)NC(=O)CNC(=O)[C@H](Cc1ccccc1)NC(=O)[C@H](CC(N)=O)NC(=O)[C@@H]1CCCN1C(=O)[C@H](CO)NC(=O)[C@H](CO)NC(=O)[C@H](Cc1c[nH]cn1)NC(=O)[C@H](CCCNC(=N)N)NC(=O)[C@H](CC(C)C)NC(=O)[C@H](Cc1ccccc1)NC(=O)[C@H](CCC(=O)O)NC(=O)[C@H](C)NC(=O)[C@H](CC(C)C)NC(=O)[C@H](CCCNC(=N)N)NC(=O)[C@H](CCC(N)=O)NC(=O)[C@@H](NC(=O)[C@H](C)NC(=O)[C@@H]1CSSC[C@H](NC(=O)[C@@H](N)CCCCNC(=O)CC[C@H](NC(=O)CC[C@H](NC(=O)CCCCCCCCCCCCCCCCCCC(=O)O)C(=O)O)C(=O)O)C(=O)N[C@@H](CC(N)=O)C(=O)N[C@@H]([C@@H](C)O)C(=O)N[C@@H](C)C(=O)N[C@@H]([C@@H](C)O)C(=O)N1)[C@@H](C)O)C(=O)N1CCC[C@H]1C(=O)N[C@@H](CO)C(=O)N[C@@H](CO)C(=O)N[C@H](C(=O)N[C@@H](CC(N)=O)C(=O)N[C@H](C(=O)NCC(=O)N1CCC[C@H]1C(=O)N[C@@H](CCC(=O)O)C(=O)N[C@H](C(=O)N1CCC[C@H]1C(N)=O)[C@@H](C)O)C(C)C)[C@@H](C)O

biological target: T1, human amylin 3(a) receptor (human …); assay: cell-based or functional assay

Row | hAmylin-R funct. EC50 (pM) | Binder
1 | 213 | B1
2 | 70 | B2
3 | 146 | B3
4 | 80 | B4
5 | 101 | B5
6 | 52 | B6
7 | 132 | B7

biological target: T2, human calcitonin receptor; assay: cell-based or functional assay

Row | Ratio hCT/hAmylin funct. | hCTR funct. EC50 (pM) | Binder
8 | 2.2 | – | B1
9 | 2.1 | – | B2
10 | 1.6 | – | B3
11 | 3.6 | – | B4
12 | 1.8 | – | B5
13 | 0.8 | – | B6
14 | 0.8 | 102 | B7
